Test results published in the DeepSol protein solubility set.

Experiment: soluble on expression in E. coli; label from the status in PepcDB or PDB records

Sequence	soluble on expression in E. coli
MGSDKIHHHHHHMIELIATAESVEQAVELLATGVDTLYIGEETFGLRLPVSFTRDEQREIVKRAHEMGKQVLVAVNGIMHPEKMKLVPEYLTFLKEINVDKITLGDPGIVFIMQRDGLEIPYVYDGETLVTSSRQINFWSKRGAIGAVLAREVPFEEMVAMEENLAVPAEILVYGATCIHQSKRPLIQNYYNYTKNDKGVTKDEGLFISEPKKPETHYSIYEDSHGTHIFANNDVNLMNELTNLYDHHYRTWKLDGLYTPGENFVAIARLFAEAKAALEAGTWSEDQAAHATAEIEKLHPTGRGLDNGFFDLSADAIK	not soluble
MGSDKIHHHHHHMKIGFLSRWGATCGVGMHAEILAREFIRMGHEVVVFAPTEESASKEVKYYKRTEAQDPEFVKREIYTEVDNVTEEGWVKEEEILKENLDLLIIETFWRVPVKPLTRLIEKLKIPVISVFHEANIFKAREVVKLPCDKIVVFDRRFYDEILEFYEIPREKVEVISYPVMKPYDAEPERPVSEDKFLFFSFGRQPVEEYCDFLNALKKLRKRFDNVHYWIIRSDGRVDYEAEWITQWQKRPTVEKLYSYLKGSNVHLLPKGNTPNVVVSSTLYQIIASETPIVIRDSRFVETIETDVYGFGPIVKYRNIHDLVHKLELLMLDRELVEDIKKEVRVFVEKYGGDKIAQEFLDLAKTITK	not soluble
MATLDKFLSIKENDEKTKKKESKKKSSKSNKTSESLVSHDHFELTPEFENQLWKVADKLRKKMEVHQYKYVVLGLIFLRALTCRFYERRKEIEEELSNPNSELYTEDPELRKMILEDEDFYLSEGVLYLPKETRWDYFVENVMSPNIGEIIDTAIEILEEKYPDRLKDVIPKIYAQSPLDNHDYSYLINKFSEISFGKEHRVKDVFGRIYEYFLGKFTEVEGKLGGKFYTPRSLTKLIVDVLDVKGGSIFDPACGSGGFFVSALEKLEREGIDINELSIYGQDSDPMAYRLTKMNLIIRGAEGDIRIDDSYHDDKFMDMTFDYVVANPPFNDSEWDANRIKPDDPRLRIGNKKVPVPPNGNANYMWILHFIYHTAPNGKAGFVMANGALSAGNVEGEIRKAIIENDLVYGIVACPPKLFYNVSLPVSLWFIRKEKPDYMKGKVLFINAKNLYKQISRRQNILTEEHIKKIVDKFRMFESGEDEDKINELGFAKVATIDEIAKNGYVLTPGRYVGVKIEDDGIPFEVKMKEYSEELKKLLDEEEKLRNKVKEILDALGF	soluble
MYTAIPQSGSPFPGSVQDPGLHVWRVEKLKPVPVAQENQGVFFSGDSYLVLHNGPEEVSHLHLWIGQQSSRDEQGACAVLAVQLDDYLGGRPVQHREVQGNESDLFMSYFPRGLKYQEGGVESGFKHVVPNEVVVQRLYQVKGAKNIRATERALNWDSFNTGDCFILDLGQNIFAWCGGKSNILERNKARDLALAIRDSERQGKAQVEIVTDGEEPAEMIQVLGPKPALKEGNPEEDLTADKANAQAAALYKVSDATGQMNLTKVADSSPFALELLISDDCFVLDNGLCGKIYIWKGRKANEKERQAALQVAEGFISRMQYAPNTQVEILPQGRESPIFKQFFKDWK	soluble
MSLYQRCFDNASETLFVAGKTPRLSRFAFSDDPKWESGHHVHDNETELIYVKKGVARFTIDSSLYVAHADDIVVIERGRLHAVASDVNDPATTCTCALYGFQFQGAEENQLLQPHSCPVIAAGQGKEVIKTLFNELSVILPQSKNSQTSSLWDAFAYTLAILYYENFKNAYRSEQGYIKKDVLIKDILFYLNNNYREKITLEQLSKKFRASVSYICHEFTKEYRISPINYVIQRRMTEAKWSLTNTELSQAEISWRVGYENVDHFAKLFLRHVGCSPSDYRRQFKNCFAEQEILSEFPQPVSLVGEGGSHHHHHH	soluble
MKLSAQSHASIASSLREAVDKYIADGERTVVTDIHLQPKQDSGELVIFNDDDEELSRTIIEEWVDYSEDDFYTIVERILRGEINALKDTGVLDKLAIMKPYSFVLVDEDRETVTELLLIDDEDTLLLNDELLKGLDEELDAFLKDLLEKLEHHHHHH	soluble
MHLLRTQPGGFVPDDGIAHLAQTPAELVILCSGDSHLALLAEAARALPDDYPSLRLANPMQLQNHASVDLYVEEVLRHARVILLSLHGGIGYWRYGVEQLVALAERGALLIPVPGDDRPDPELSALGNLPAEQAERFWQYLRQGGLENAGQFYRCLASQCLGRDYAWREPQALPRVALFHPRHAEATLEHWRADWQAGRPVVALLFYRTHLQAANTAFIARFCERLAAQGLNPLPIALASLKESACLAQVEDWLERSDAALIVNTTGFAQSNPEAPELRPFRRDVPVLQAICSLDNRPLWLDNPQGLGPRDLAMHVALPELDGRIVTRPISFKGLAWRSERSESDVVCYLADDERMDFVAELARRWAELARKPNAEKRVALVLANYPTRDGRIGNGVGLDTPAAALNILRALRQQGYPVDGLPASGTELIRQLLGGVSNDLEHLDLRPCAQSLALDDYLACFARLPERNRQAVLARWGEPQQDPMFRDGRMMVAGLRYGLTFVGIQPARGYQLDPAAVYHDPDLVPPHGYLAFYFWLRHAYRADALLHVGKHGNLEWLPGKGVGLSAECWPDALLGPLPNIYPFIVNDPGEGAQAKRRTQAVIIDHLMPPLTRAESYGPLRDLERLADEFYDASLLDPRRAEQLRGEILVLLRDNRLDREIGLQLSDDPDSWLPQLDAYLCDLKESQIRDGLHVFGESPSGRLRLDTLLALLRVPRGDGKGANAGLLKSLADDLGLGFDPLACDMGEAWQGARPACLEERGGEPWRTLGDTRERLELLALHWIERCLGGESPPATWRASGEVLRGLCEQVAPTLDACGGAEIDGLLAALEGRFVPAGPSGAPSRGRLDVLPTGRNFFSVDVRNLPTPTAWRIGFQSANLLLERHLQEHGDHLRQLGLSVWGTATMRTGGDDIAQALALLGVRPVWQAGSQRVADFEILPVSLLDRPRVDVTLRVSGFFRDAFANLIRLFDAAVQAVAELDEAEELNPLAARVRLERQRLEAQGTAPAEARRQAGWRIFGAKPGAYGAGVQGAIEERLWETRADLAEVYLNWGGYAYGAADDGTPARERFAQRLERLQAVLHNQDNREHDLLDSNDYYQFQGGMLAAVETLRGAPVASYHGDHSQPDNPRIRTLKEELNRVVRARAVNPKWIAGMKRHGYKGAFELAATVDYLCAFDATSELIDDHQYALLADAYLLDAETREFVRQHNPQALRDMAERLVEAQRRGLWQEPGAYREALENL	not soluble
MGSDKIHHHHHHMRILISPPMRFGKEFLGGMRRTLEVYSRMGEEVYLCVDERTLPQVDPEISPLLSKFHLVSSSSTDKKTYLKGFLNCLKYARKVDVLISYSEYSLSVYYTWLLSLFSRKPFIVVVHHVTEEIRGSKFLRTVIARSKGIICLDNPEVYEELKSLFPNKVILTSTNGVSVEDYYTSEEKICDGIFVGNYGERKGSRYLFQIWDKVNEKIDAKLCIIGKGWSEIPKNSVYYGFVTEREKIDLLAKSKVFVFPSLYEGFALAVTEALSAYLPVVTWDLKWSERYPVAIRVTYPDISSFAEEVVKLLKDEKLRKSIGEKSRELAKTLNWEKAAEMEKKAIYKIMESK	not soluble
MGSSHHHHHHSSGLVPRGSHMVESKNTELSQGTWLNKPKSVFQEAGKVTLETDEKTDFWRETFYGFTRDSGHFLGVETGSAFTAQVRVQGSYESLYDQAGIMVRIDDGHWLKAGIEISDGHAMLSSVLTNGKSDWSTAVYGGNARDFWLRVTVEKGVLRIQVSSDKKTWPLVRLAPFPTSDHYLVGPMACTPERGGLKVTFSEWSLTAPLGKALHDLS	soluble
MISPSKKRTILSSKNINQKPRAVVKGNELRSPSKRRSQIDTDYALRRSPIKTIQISKAAQFMLYEETAEERNIAVHRHNEIYNNNNSVSNENNPSQVKENLSPAKICPYERAFLREGGRIALKDLSVDEFKGYIQDPLTDETIPLTLPLGDKKISLPSFITPPRNSKISIFFTSKHQGQNPETKISRSTDDVSEKKVVRKLSFHVYEDE	not soluble
MGSDKIHHHHHHMHLIDFMNEDIKKKLVKKTYKKKETILFAEQENEYVILMIDGIAEAFILNVKGNISTIHLYRSGSFFGEMEQFNDGKKPVEIVAFTDCNVYKLHRDDFLNWLRGDFEATKFLIREISSKLVVNAELIEELSSLSVKERLLRCISLHYYRSELNLLTKKQLASEVNAPIRSINRAINECVQEHLIAYENKRFSVINQREVLKNLPTT	not soluble
MVLPKSKNQIGLGRAIQSDFTKNRRNRKGGLKHIVDSDPKAHRAALRSVTHETDLDEFLNTAELGEVEFIAEKQNVTVIQNPEQNPFLLSKEEAARSKQKQEKNKDRLTIPRRPHWDQTTTAVELDRMERESFLNWRRNLAQLQDVEGFIVTPFERNLEIWRQLWRVIERSDVVVQIVDARNPLFFRSAHLEQYVKEVGPSKKNFLLVNKADMLTEEQRNYWSSYFNENNIPFLFFSARMAAEANERGEDLETYESTSSNEIPESLQADENDVHSSRIATLKVLEGIFEKFASTLPDGKTKMTFGLVGYPNVGKSSTINALVGSKKVSVSSTPGKTKHFQTINLSEKVSLLDCPGLVFPSFATTQADLVLDGVLPIDQLREYTGPSALMAERIPKEVLETLYTIRIRIKPIEEGGTGVPSAQEVLFPFARSRGFMRAHHGTPDDSRAARILLKDYVNGKLLYVHPPPNYPNSGSEFNKEHHQKIVSATSDSITEKLQRTAISDNTLSAESQLVDDEYFQENPHVRPMVKGTAVAMQGPVYKGRNTMQPFQRRLNDDASPKYPMNAQGKPLSRRKARQLTALELGVSPEALSSATSKKHNKKNKRSKQRSGVVIDDY	soluble
MSLSTRSRIREERKDPLSALAREYGGSKRNALLKWCQKKTEGYQNIDITNFSSSWNDGLAFCALLHTYLPAHIPYQELNSQDKKRNFTLAFQAAESVGIKSTLDINEMARTERPDWQNVMLYVTAIYKYFETEGHHHHHH	soluble
MEPLLSLKSVSKSYDDLNILDDIDIDIESGYFYTLLGPSGCGKTTILKLIAGFEYPDSGEVIYQNKPIGNLPPNKRKVNTVFQDYALFPHLNVYDNIAFGLKLKKLSKTEIDQKVTEALKLVKLSGYEKRNINEMSGGQKQRVAIARAIVNEPEILLLDESLSALDLKLRTEMQYELRELQSRLGITFIFVTHDQEEALALSDFLFVLKDGKIQQFGTPTDIYDEPVNRFVADFIGESNIVEGRMVRDYVVNIYGQDFECVDMGIPENKKVEVVIRPEDISLIKAEEGLFKATVDSMLFRGVHYEICCIDNKGYEWVIQTTKKAEVGSEVGLYFDPEAIHIMVPGETEEEFDKRIESYEEVDNA	not soluble
MGSDKIHHHHHHMKKYLTLAASALLLAACSEKPGYEINGTVANTDLNGKYVYLYEYGVQDAAPMDSALVQNGTFTFKGTQSAPALRKLAFAEDVVEPKRAASGENAPFTSVFVLENGKLQAVLDEAASAVSGTPENDGLKALQAQMKTLRADLEKLSADMKSEDKEVVSAAEKKYDEIDQKVTDAVKTYILNNTTKQSAAKLLYDFRYSLDEAAQNEIIAKADSAFKAVPNIDKLMAHLDVLKTVAVGKKFVDFEMADPNGKTHKLSEFVGNGKNIVLIDFWASWCPPCRRDMPNLVAAYKKYKNKGFEIVGISLDSKADAWAKGVKDLNITWTQLSDLQGWKNSGAQLYGVNSIPHTVLVDKDGTIIAKNLHGEEIDAKLQEILK	not soluble
MNRHSAGQSTPVRVATLDQLKPGVPTAFDVDGDEVMVVRDGDSVYAISNLCSHAEAYLDMGVFHAESLEIECPLHVGRFDVRTGAPTALPCVLPVRAYDVVVDGTEILVAPKEADHHHHHH	soluble
